Test in all cases: EMSA
In series [1] the target is T1, FL-Pot1 (Schizosaccharomyces pombe, UniProt O13988 1-555).
T1 sequence: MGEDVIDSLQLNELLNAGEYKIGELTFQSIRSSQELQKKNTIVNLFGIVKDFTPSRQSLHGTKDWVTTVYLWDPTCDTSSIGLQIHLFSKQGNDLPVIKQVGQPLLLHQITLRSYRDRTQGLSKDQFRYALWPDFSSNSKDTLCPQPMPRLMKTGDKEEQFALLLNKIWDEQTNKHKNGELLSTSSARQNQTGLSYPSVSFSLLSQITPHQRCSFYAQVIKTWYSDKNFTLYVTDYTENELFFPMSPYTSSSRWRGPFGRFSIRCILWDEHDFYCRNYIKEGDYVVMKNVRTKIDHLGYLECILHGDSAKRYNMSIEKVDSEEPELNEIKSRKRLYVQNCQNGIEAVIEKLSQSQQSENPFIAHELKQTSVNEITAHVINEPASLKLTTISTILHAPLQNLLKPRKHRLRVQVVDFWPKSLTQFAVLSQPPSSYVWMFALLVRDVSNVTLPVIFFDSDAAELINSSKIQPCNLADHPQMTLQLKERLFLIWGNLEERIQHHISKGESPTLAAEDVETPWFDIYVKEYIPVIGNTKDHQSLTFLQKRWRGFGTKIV

For series [2], the target named is T2, Pot1-DBD (Schizosaccharomyces pombe, UniProt O13988 1-389).
T2 sequence: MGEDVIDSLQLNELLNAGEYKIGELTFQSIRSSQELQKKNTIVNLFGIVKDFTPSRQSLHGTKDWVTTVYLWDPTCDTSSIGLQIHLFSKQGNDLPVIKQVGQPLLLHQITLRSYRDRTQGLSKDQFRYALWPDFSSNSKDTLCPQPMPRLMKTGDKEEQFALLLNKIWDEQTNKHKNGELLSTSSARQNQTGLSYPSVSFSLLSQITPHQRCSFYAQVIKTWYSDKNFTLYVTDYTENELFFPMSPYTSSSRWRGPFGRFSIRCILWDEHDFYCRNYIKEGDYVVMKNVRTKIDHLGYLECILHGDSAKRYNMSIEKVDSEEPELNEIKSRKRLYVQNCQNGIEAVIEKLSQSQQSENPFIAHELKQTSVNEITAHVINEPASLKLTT

The target in series [3] is T3, Pot1-DBD_L122A (Schizosaccharomyces pombe, UniProt O13988 1-389, L122A).
T3 sequence: T2 sequence with L122A

In series [4] the target is T4, Pot1-DBD_S123A (Schizosaccharomyces pombe, UniProt O13988 1-389, S123A).
T4 sequence: T2 sequence with S123A

The target in series [5] is T5, Pot1-DBD_D64A (Schizosaccharomyces pombe, UniProt O13988 1-389, D64A).
T5 sequence: T2 sequence with D64A

Series [6] concerns the target T6, Pot1-DBD_F88A (Schizosaccharomyces pombe, UniProt O13988 1-389, F88A).
T6 sequence: T2 sequence with F88A

Series [7] has as its target T7, Pot1-DBD_Y115A (Schizosaccharomyces pombe, UniProt O13988 1-389, Y115A).
T7 sequence: T2 sequence with Y115A

For series [8], the target named is T8, Pot1-DBD_T62A (Schizosaccharomyces pombe, UniProt O13988 1-389, T62A).
T8 sequence: T2 sequence with T62A

Substitutions are numbered along the chain they refer to.

For GGTTACTTTTTT (ssDNA) [6mer_T6], in series [1], the Kd – broadly, the concentration at which binding is half-saturated – stood at 3.2 ± 0.3 pM.

Molecule GGTTACGGTTACGGTT (ssDNA) [16mer] yielded a Kd in series [1] of 2.2 ± 0.04 pM. On the same count and under the same terms, for GGTTACGGTTACG (ssDNA) [13mer] the value was 2.3 ± 0.3 pM; for GGTTACTTTTTTTTT (ssDNA) [6mer_T9], 2.6 ± 0.2 pM. As to CGTTTGCCAATGCCA (ssDNA) [15 comp GTT], in series [1], the Kd stood at 10600 ± 300 pM. As for GGTUACGGTTACGGT (ssDNA, U at 4 = deoxyuridine) [15_T4U], in series [1], the affinity, expressed as Kd, was 3 ± 0.4 pM. As to GGTTACGGTTAC (ssDNA) [12mer], the Kd in series [2] is 4 ± 0.3 pM; in series [3], 770 ± 230 pM; in series [4] it was 8.2 ± 0.9 pM; in series [5], 3400 ± 670 pM; in series [6], 7700 ± 1800 pM; in series [7], 49 ± 5 pM. The Kd in series [1] was 2.8 ± 0.4 pM; in series [8] it was 48 ± 8 pM. GGTTACCCAATG (ssDNA) [6mer_6 comp] displayed a Kd in series [1] of 9.5 ± 0.3 pM.

Take GGTTACGGTTACGGT (ssDNA) [15mer]: the Kd in series [2] came out at 2.9 ± 0.3 pM; in series [3] it was 10 ± 1.4 pM; in series [4], 3.7 ± 0.3 pM; in series [5], 18 ± 2.4 pM; in series [6], 120 ± 30 pM; in series [7], 8 ± 0.7 pM. Also, the values for the Kd in series [1] and in series [8] were 2.2 ± 0.1 pM and 6.2 ± 0.6 pM, respectively. Consider GGTTACGGTTACGGTTAC (ssDNA) [18mer], for which the Kd in series [1] stood at 3.8 ± 0.3 pM. GGTTACCCAATGCCA (ssDNA) [6mer_9 comp] displayed a Kd in series [1] of 3.8 ± 0.1 pM. In series [1], TTTTTTTTTTTTTTT (ssDNA) [T15] had a dissociation constant (Kd) of 8600 ± 1900 pM. Same read-out and setting: for GGTTACACGGTTACACGGT (ssDNA) [15mer_2xAC] the value was 3.2 ± 0.3 pM; for GGTTACGGTTACGG (ssDNA) [14mer], 2.4 ± 0.4 pM; for GGUTACGGTTACGGT (ssDNA, U at 3 = deoxyuridine) [15_T3U], 2.6 ± 0.2 pM. Still for that read-out and setting: for GGTTACGGTTACGGTTA (ssDNA) [17mer] the value was 2.3 ± 0.1 pM.

(Values after article PMC3184176.)
